Assays:
Experiment in all cases: SPR
[1] = molecular target: SARS-CoV-2 Omicron BA.5 spike protein trimer (SARS-CoV-2) (UniProt P0DTC2)
[2] = molecular target: SARS-CoV-2 Omicron BA4.6 spike protein trimer (SARS-CoV-2) (UniProt P0DTC2)
[3] = molecular target: SARS-CoV-2 Omicron BA2.75 spike protein trimer (SARS-CoV-2) (UniProt P0DTC2)
[4] = molecular target: SARS-CoV-2 Omicron XBB.1 spike protein trimer (SARS-CoV-2) (UniProt P0DTC2)
[5] = molecular target: SARS-CoV-2 Omicron BQ.1.1 spike protein trimer (SARS-CoV-2) (UniProt P0DTC2)
[6] = molecular target: SARS-CoV-2 Omicron BA.2 spike protein trimer (SARS-CoV-2) (UniProt P0DTC2)

## LiVE-Longer YTE chimera (ACE-2 LVE/STR-YTE fusion protein) (from UniProt Q9BYF1 18-740) (Fc fusion)
[1]
  Kd: 5.43 pM
[2]
  Kd: 845 pM
[3]
  Kd: 0.133 pM
[4]
  Kd: 215 pM
[5]
  Kd: 1.81 pM
[6]
  Kd: 0.078 pM

Source: publication PMC9889962
